Measured values as given in paper PMC8084935.

Target: FITC-labeled McrA peptide (GG-…) (Methanothermobacter sp. CaT2)
Assay: fluorescence polarisation

- Kd: 7 µM
Substance: MtYcaO (YcaO from Methanothermobacter sp. CaT2), MBP-His tag cut in the assay mixture (enzyme)
